Test results as given in a protein production outcome set (Wang et al. 2014).

Experiment: label from the status in PepcDB records

For “MSSPVISPETKTGKKILLAAPRGYCAGVDRAVETVERALEEYGAPIYVRKEIVHNRYVVDTLAEKGAIFVNEASEAPEGANMVFSAHGVSPMVHEEAAAKNIKAIDAACPLVTKVHKEVQRFDKQGFHILFIGHEGHEEVEGTMGHSVEKTHLVDGVAGIATLPEFLNDEPNLIWLSQTTLSVDETMEIVRELKVKFPQLQDPPSDDICYATQNRQVAVKAIAERCELMIVVGSRNSSNSVRLVEVAKQNGADNAYLVDYAREIDPAWFEGVETIGISSGASVPEILVQGVIERLAEFGYDDVEEVTSAAEKIVFALPRVLRHKN”, the protein production was “not failed”.
In the case of “NGKLFLVGTPIGNLKDITLRALETLQNCDVIAAEDTRQSLKLLNHFDIKKPLISYHKFNENNRSSELMDMVREGKKVALVTDAGMPGISDPGSVIVEKFIENNLEFEVIPG”, the protein production is reported as “not failed”.
In the case of “SLRHSPSLWELVEEHVPLRERREVKRILGEAAVDLSLELRAEVAMLRALLQEARSSQAPSSRPISDPSSLLAPPPLLKDLLRQELRQLLQGLRHKAICEGRDQAQAWVQYSPRVLHFALEEPRCDLPEQEIFQMRGGGPSSGHRDLSIIKDQLNVSNIDQVARHLRGLLEEECHTLEREILILQRCLEEEYLRPCHPSEAALEPTLAELKEQKKAMEQELQASVGPSCVSPNHRQRPLGSSTQGLRPPLPLCGVAPLQCCLPAPPLEPYLRPRGQSATHRWGRQLQCSPREGPASTPMSSAAPQAPA”, the protein production is reported as “not failed”.
With “MATFMTEDFLLKNDIARTLYHKYAAPMPIYDFHCHLSPQEIADDRRFDNLGQIWLEGDHYKWRALRSAGVDESLITGKETSDYEKYMAWANTVPKTLGNPLYHWTHLELRRPFGITGTLFGPDTAESIWTQCNEKLATPAFSARGIMQQMNVRMVGTTDDPIDSLEYHRQIAADDSIDIEVAPSWRPDKVFKIELDGFVDYLRKLEAAADVSITRFDDLRQALTRRLDHFAACGCRASDHGIETLRFAPVPDDAQLDAILGKRLAGETLSELEIAQFTTAVLVWLGRQYAARGWVMQLHIGAIRNNNTRMFRLLGPDTGFDSIGDNNISWALSRLLDSMDVTNELPKTILYCLNPRDNEVLATMIGNFQGPGIAGKVQFGSGWWFNDQKDGMLRQLEQLSQMGLLSQFVGMLTDSRSFLSYTRHEYFRRILCNLLGQWAQDGEIPDDEAMLSRMVQDICFNNAQRYFTIK” the protein production was “not failed”.
For “MSDHEVTGGVSLKERVAIVLVEPQSPGNVGMVCRAMKNMGLGELRIVKGCRLDHPEALKFAVSARDLLERARVFESLEDALSDTELSVATTRRHGKYRQEIFSPKEIVSKFAANLAGNRAALVFGREDNGLTTDELSLCRWHATIPSSEEYGSLNLAQAVMVFCYELFTSLGSRTVGGEDRPLAGSAETEPLFEHMERTLMRIGYLNPQNPAHLMRSLRRIFARSELDSREVAILRGMMTQIDWAADQFKGKKGA”, the protein production was “failed”.
In the case of “MLLVMGAHESGLDRARLQSLYEQLVATNEDETEKLAASGHSTGLVASEWARFLAPFDFGYRLVALQRESKRVAAALTRALYGIDTSGASEHDPLWAVEHRVLPVPVTDRLLFCEMRFLLVLALSRRLWMRLERVDPLGQENPFPRDAEIIERVEDLARQSRERLALLAERSPEALNAGKQEAHDCIEDLRTKETRAAEQVAGFAQALGDAALLEKVWHALVDEIAQNRQLNHALLQTLCQWVLMLIGADTEVPSSASCSDE”, the protein production is reported as “not failed”.
In the case of “MKKQSLVATSLLAAFITGACTADTNIQAKPIVSQVKAKKLIKPNVLFIAVDDLRVQYGPYDFDKAITPNIDRLVNQGVAFTQAYSNVPVCGASRASMLTGVRPTINRFVAFESADKVAPWAPSIAKVFSDNGYTTYSLGKIFNNLTDHANDWSEFPWRPEGAKNEDSTSGNKKQASLLSRHDYVTSDGVAMAKKGIKNHPAFEKADVVDDAYKNGKIAKRAISDLKRLKKAGKPFFLAVGLKKPHLPFNAPSKYWDLYDESTIELTKIPLKAKDSPSQSDHNWNELRNYGHDGAMPKKGKMSDEMARKLIHGYHAATSYSDALIGNILTELESLGLEENTIVVLWGDHGWSLGEHTHWAKHSSYDVTNHIPLIIKVPGMTNGEFSKGLVESVDIFPTLTQLAGLPAPSSLQGDSLVPMLKNPQATVNDAVYPRWKNADSIRTPNYMYTEWRNKKNNKVIARMLFDHRVDPRETINVAENFKYAQVVVDLHNQLAAHIAQVEK”, the protein production is reported as “failed”.
With “MTQKEISIIHPRPSSIVAALYTLRDLNVDVAILHGPPGCSFKHARLLEEDGIHVVTTGLDENGFVFGGHDKLVQVINKSIELFNPKILGVVGTCASMIIGEEMHEAVLEANPDIPVIEVEVHAGYHNNTKGVIFALESALDAGIIDHKEFERQEYLEHHHHHH” the protein production was “not failed”.
With “MKKLIFLTLSIVSFNNYAVDFVYRVDSTPPDVIFRDGFSLLGYNRNFQQFISGRSCSGGSSDSRYIATTSSVNQTYAIARAYYSRSTFKGNLYRYQIRADNNFYSLLPSITYLETQGGHFNAYEKTMMRLQREYVSTLSILPENIQKAVALVYDSATGLVKDGVSTMNASYLGLSTTSNPGVIPFLPEPQTYTQQRIDAFGPLISSCFSIGSVCQSHRGQRADVYNMSFYDARPVIELILSK” the protein production was “failed”.
For “MRHFDASQPLRVAVLGTGFGSKVHIPALQHHSETTVQAVYHRQPDRAAAIAVQFGIPNAYSDLDQLLADPAIEAVTIASPPFLHYPMAWAALSAGKSVLLEKPTTLNVEEARALWKLASSQGLTVTLDFEYRFVPAWQYVAELLAEGVIGQPWLVKLDWLMSSRADASRPWNWYALRSQGGGALGALGSHSFDYLAWLFGPARRLQARLFTAIQERPDATTGELKPVDSDDTDLIQLELAEGVPCQISLSSVFRQGRGHWLEVYGDRGTLILGSSNQKDYVHGFQVWFASAGQALQELTVPQRLAFRQEFADGRLAPFLRVVDHWLADLRHGQMTAPSLKEGLYSQLLIDLCWQSQRSGEWQTVPELNRFLLEHHHHHH”, the protein production was “failed”.
In the case of “MMFNYIYTTFLTILYTVVMSLSLSLYLKEREKNYLLVSLYFLLLILNGLIVTMSETFQIFANDYNQQFMVNPIIETIYYLATFGIALKLVTELFEEKITTYQYGIYIVFALWLIVVPFMANSALKVWLYYFPSQLLTVYLGIYLLIHNRKMIPKSSLGKYVKLIGSLAIFFGLAIVVEDTFIIYFRDIYHTNMLKIHNRNVSEDIFHISLCLIAIKYFLTNYQKSNEEVAVIDIRNEKKETNDSVSNFEEDEYYFERFMDKYGITQREGEILELLLQRKHNQEIANQLYLSLGTVKTHTHNIFIKLQVEKRSEVCEVWEAFEKSELTQ”, the protein production is reported as “failed”.
In the case of “MNESPKEGAGGAPDYDVWEAEVKSSRGLPLVWLIPLVALGIGIWLAYRTLSEEGPTITLLFKEAPGLEAGKSKIKFKDVEIGTVESVVLNEDLTGVVVTAKMEKHVATHLGENTAFWVVKPELGLGGVSGLDTLMAGNYIAVEFGGGKVVRRFVGLERPPRIKADTPGRSFFLSADNAGPLKYGTPVYFRDIEVGQVVNVGLAEDNRSVQVEIFIDAPYHRLVHNSTRFWQVSGIDLSLSAQGVNLKVGSIMSLLQGGITFETPTLNDPKVQSSEPNTRFRLHKDFASIAEGTYTLRQPYLLFFDDSVRGLNVGAPVELKGIRVGTVTELKLALDFGAHKIRIPVVIEIDPERLIPYGAEEIIERAKKEYKAAMEAGRRPFMEKLVERGLRARLRTGNLLTGQLYVDLDFYPESPPKSLDYSGQYPELPTLPSVADELQRNVTEIIANLKKIPLDKIGQELLGTVQGSNRLLNSPELKGAVGSLNLALKDLRHLAQTADREMVTLTSAAEKSLSSTARVLEQLEPGSAMAVDISNALEELAASARSIRALTDYLERHPEALLHGKGGSGGKP”, the protein production is reported as “failed”.
With “MPSPVLIAIDASPASSTLLTLARRYCRPGEHELHVLLAIDSTFAVHEQPAPYTAEELEEYPAACQEQQHADHAVAEAVRELQQAGFASQGCMVAGLPVEAIVTKAQELNCELIIMGHRHLSRLGRLLDPSISAKVIDRVDMPVLV” the protein production was “failed”.
In the case of “MVDLVAKLKRGAPMLALLIVSTVLAGCSSSTAIKGSKDEGLRLARLLRDQGRVEAATEVYARLDSRDALKGAEMLEYASVAALARSPQQTLELYGRARQALGGDTNKMTPGEALAVCLGMGRTQLALGRNAMAQTDFACALKAQPNDAGALNGMGVVMDASGKHAEARQLFEKALQVNPADVAALNNLALSWLASGNTDKAISLLRSVDESNATSRLNLALAYLSGGRDDEARSALATIAQPQRIDGLMDELNQRLQQMQKDKSRGEALLLSSRQRLQLSAPE”, the protein production is reported as “failed”.
For “MDITMKIAPLLLALGAAGLACCAHAADPKPFTVQQLVKLNKLHSAVVSHDGTKLVYGLKTVNDKGEASSDLYLLDLTQADAKPLQLTSAAGTEHDISFANDDKSIYFLASRSGSSQLFQLPLTGGEAQQVSDLPLDIDGYKLSNDGKQIVLSMRVFPECKDLACSKDKFKAEEERKSTGREYKQLMVRHWDTWEDHARNHLFVGTLNGEKLTKVVDITQGLDTETPPKPFSGMEEVTFTPDGQYVVYSAKAPSKDQAWTTNYDLWQVSVNGGKATNLTADNIAWDAQPTFSSDGRYMAYLAMTKPGFEADRYRIMLRDTSTGQSKEVAPLWDRSPSSLMFAPDNRTLYVTAQDIGQVSIFKVNTQFGDVQSVYSDGSNSLIAIADDQLIFDSKTLVEPGDLYRINTDGQGLKRLTEVNKDKLAEIKFGEFQQFSFKGWNNEDVYGYWIKPANYQEGKKYPIAYLVHGGPQGSFGNGFSGRWNAQLWAGAGYGVVMVDFHGSTGYGQAFTDSISQDWGGKPLEDLQKGLAAVSQQQKWLDPQNACALGGSYGGYMMNWIQGNWNDGFKCLVNHAGLFDMRSMYYVTEEVWFPEHEFGGTYQDNKALYEKFNPVNYVENWKTPMLVIHGEKDFRVPYGQGLAAFSFMQRKGIPSELLIYPDENHWILKPENLEQWYANVFRWMDSWTKK”, the protein production was “failed”.
In the case of “MQDTPQRGQRSKVRWLVAGLMWAAIAINYIDRTVLSAAAPHIQKEFHLSAVEMGVVMSAFFWSYALLQLPAGILADRFGQKKVLGFAVLWWSLATAVTGLATGFKSLVGLRVALGVGEAGAYPSNAGITSRWFPKQERATVAAIFDSGSKLGSAIALPLIAWLLVTFDWKITFTVAGSLGIVWCVVWALVFRDSPAEHEGVNAAELAHIQKGLPPARGADAPAMPWTKLLTHRNVWAMCIGFFMINYNSYFFITWLPTYLVKERGMGLMEMGFMASLPLFVSMFVEVFAGWASDRVYASGRLSLTATRKLFLVIGLVMASSIGLAAFAQSAVVAVILLCIAKSGTTVAASQVWALPADVAPGNTVSMVAGLQNSVSNMGGVVGPIVTGAIVGATGSFIPALVFSAALIGLAILNYLFLLGKVEPIAFEPNPATLNPNSHGRSNADARA”, the protein production is reported as “failed”.
With “MANSLRTLFSVSTHGVFLNKRSSYRVRKVFVGMPLRICSEIPRFVSVSCIRSDMCGIMMLGKDVHDLLETSSGGNVEKGFLRWRNGGGMYHRSALIDSSALVEFGAVVHQEAILGAEVHIGSNTVIGSSVKIGPSTKIGNCSIGDLCVIHNGVCIGQDGFGFYVDDNGNMVKKPQTLNVKIGNRVEIGANTCIDRGSWRDTVIGDDTKIDNLVQIGHNVIIGKCCLFCGQVGIAGSAEIGDFVALGGRVAVRDHVSIVSKVRLAANSCVTKNITEPGDYGGFPAQEETITYSVCQTQED” the protein production was “failed”.
For “MKGTVGELGEFGLIRELTSRLTTTPAVRVGPGDDAAVVAAPDRRVVASTDILVEGRHFRRDWSTAYDVGRKAAAQNLADIAAMGAVPTALLLGLVVPAELPVTWPTELMDGLRDECQVAGASVVGGDVVRGDTITVSITALGDLRNQEPVTRAGAQPGDLVAVTGWLGWSAAGFAVLSRGFRSPRAFVEAHRRPEPPYHAGPAAAGLGATAMCDVSDGLIADLGHIAEASKVRIDVRSGQIDIPSQMNDIGQAVGVDPMQWVLTGGEDHAIVATFPPDVKLPARWKVIGEVLNPSALPQVTVDGAPWTSKGGWDHFGGDVES”, the protein production was “failed”.
With “MLYIFLLPIIGLALAFIINKIFPRAQFRGYDVLPFFFIAACSLITLHINRPSFLPYGFLLYFILVIVVSLSDAIRNKNISLGKTIRKLWDYLAACTCFWYLGLLIMMFL” the protein production was “failed”.
